The assay concerns the target horse liver alcohol dehydrogenase (horse). Description: cryo-EM structure.

By stoichiometry N is commonly meant a count of units in the complex or per binding partner. For the substance “horse liver alcohol dehydrogenase (enzyme)”, the stoichiometry N is 2.

Values taken from paper doi:10.1101/489898.
